Molecular target: T1, ADP-ribosyl cyclase 2 (BST1), human, cell-surface (human, UniProt Q10588 33-293)
T1 construct: Endogenous BST1 on A549, H226 and U937 cells and on blood cells of AML patients; also called CD157; Bone marrow stromal antigen 1
T1 sequence: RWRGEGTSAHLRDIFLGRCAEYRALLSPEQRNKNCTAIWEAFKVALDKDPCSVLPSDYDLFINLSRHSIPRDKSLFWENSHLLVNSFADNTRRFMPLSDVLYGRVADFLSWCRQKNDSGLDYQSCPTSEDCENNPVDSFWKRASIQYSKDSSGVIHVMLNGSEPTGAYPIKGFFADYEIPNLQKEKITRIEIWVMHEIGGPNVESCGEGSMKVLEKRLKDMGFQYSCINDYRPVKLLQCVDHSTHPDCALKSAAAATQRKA
Assay: flow cytometry on BST1-expressing A549 and H226 cells
Procedure: The specificity of antibodies against the BST1 selected in Example 6 was also tested by flow cytometry. To test the ability of the antibodies to bind to the cell surface BST1 protein, the antibodies were incubated with the BST1-expressing cells, H226 (human lung squamous carcinoma) and A549 (human lung adenocarinoma). Cells were washed in FACS buffer (DPBS, 2% FBS), centrifuged and resuspended in 100 μl of the diluted primary BST1 antibody (also diluted in FACS buffer). The antibody-A549 complex and antibody-H226 complex were incubated on ice for 60 min and then washed twice with FACS buffer as described above. The cell-antibody pellet was resuspended in 100 μl of the diluted secondary antibody (also diluted in FACS buffer) and incubated on ice for 60 min on ice. The pellet was washed as before and resuspended in 200 μl FACS buffer. The samples were loaded onto the BD FACScanto II flow sytometer and the data analyzed using the BD FACSdiva software. The binding of BST1_[…] and BST1_A2 to BST1 expressed on A549 and H226 cells were analysed using flow cytometry.

binding result: binds
B1: BST1_A1 anti-BST1 monoclonal antibody (Fab, V domains shown)
VH: QVKLQQSGAELVRPGSSVKISCKASGYAFSNSWINWVKQRPGQGLEWIGQIYPGDYDTNYNGKFKGKATLTADYSSSTAYMQLNSLTSEDSAVYFCARGGSIYYGNLGFFDVWGAGTTVTVSS
VL: EMVLTQSPAIMSTSLGERVTMTCTASSRVSSSYLHWYQQKPGSSPKLWIYSTSNLASGVPARFSGSGSGTSYSLTISSMEAEDAATYYCHQYHRSPYTFGGGTKLEIKR
